± gives the standard deviation.

This data set can be described thus: protein stability index of a GFP-peptide fusion (GPS, HEK-293T) (PSI 1-6); higher = more stable.
The mark [1] stands for this setting: treatment: DMSO, c terminus: a fixed tail appended.
[2] abbreviates: treatment: MLN4924 1 uM, 8 h, c terminus: a fixed tail appended.
Where [3] appears, read: treatment: DMSO, c terminus: native.
The mark [4] stands for this setting: treatment: MLN4924 1 uM, 8 h, c terminus: native.
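Note: 24-mer peptide tiles fused after GFP, lentivirally expressed, FACS-sorted into six equal bins by GFP/DsRed ratio, decoded by Illumina sequencing, PSI is the read-weighted mean bin number.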

Take HPMYRRLVHSAVDVPTIQEKVNEG [ZMYND11]: the protein stability index amounted to 4.11 ± 0.36 under setting [1] and 4.3 ± 0.17 under setting [2].

With HQRTHSEEETYKCLECGKSFCHGS [ZNF449], the protein stability index is, setting by setting: under setting [1], 4.63 ± 0.3; under setting [2], 4.59 ± 0.3.

Consider HRGCGDGCCCPSCYRRYRFTGFY [KRTAP19-2], for which the protein stability index is, setting by setting: under setting [3], 2.83 ± 0.59; under setting [4], 3.31 ± 0.47.

HTLPVNRETLKRKVSGNRCASPVT [ESR2]: the protein stability index is 4.07 ± 0.14 under setting [1] and 4.24 ± 0.15 under setting [2].

For the sequence HVLHHGTGKWYELQDLQVTDILPQ [USP39], the protein stability index under setting [1] worked out at 2.82 ± 0.4 and the protein stability index under setting [2] is 2.95 ± 0.39.

In the case of HVSDEDNNADLCLTDDKQVLNTQG [DLC1], the protein stability index was found to be 5.34 ± 0.23 under setting [1] and 5.46 ± 0.13 under setting [2].

With ICFCCEEFQPAKCTDKENALKLFP [FAM189A2], the protein stability index was determined as 2.37 ± 0.036 under setting [1] and 2.58 ± 0.25 under setting [2].

As for ICGLQQDEEVSSLTCDALTELLAK [CCND2], the protein stability index runs as follows: under setting [1], 3.48 ± 0.29; under setting [2], 3.74 ± 0.36.

As to IDCGKAFSQKSCLVAHQRYHTGKT [ZNF649], the protein stability index reads like this: under setting [1], 2.83 ± 0.24; under setting [2], 2.87 ± 0.16.

For the sequence IDKKPVSEKTDESDTIPYLKKFLY [MIA2], the protein stability index was found to be 2.83 ± 0.57 under setting [1] and 2.95 ± 0.4 under setting [2].

For IDSYDPSTGEVYCRVPNSGKDEIE [ALDH8A1], the protein stability index under setting [1] worked out at 4.97 ± 0.2 and the protein stability index under setting [2] is 4.92 ± 0.2.

Turning to IEDAAEPKEPAPPNGSAAEPPTEA [PALM], the protein stability index reads like this: under setting [1], 5.54 ± 0.24; under setting [2], 5.47 ± 0.22.

Consider IEDFQQKILLTKSENARLVLQIDN [KRT36], for which the protein stability index is, setting by setting: under setting [1], 2.79 ± 0.25; under setting [2], 2.8 ± 0.23.

Regarding IEEDMNNSIAHYRQVNIRTANCTT [KCNA1], the protein stability index is, setting by setting: under setting [1], 3.71 ± 0.55; under setting [2], 3.57 ± 0.48.

In the case of IEENITSAAPSNDQDGEYCPEVKL [SRPK2], the protein stability index reads like this: under setting [1], 5.5 ± 0.17; under setting [2], 5.49 ± 0.28.

As to IESKIPLNMEEPPVEEPEPKPDRL [SLC19A2], the protein stability index is 5.36 ± 0.24 under setting [1] and 5.57 ± 0.12 under setting [2].

IETSALDSTNVEAAFQTILTEIYR [RAB11A]: the protein stability index runs as follows: under setting [1], 2.35 ± 0.074; under setting [2], 2.44 ± 0.44.

In turn, IFEDRIRGIDIIKWMERYLRDKTV [TRAF3IP2] displayed a protein stability index under setting [1] of 2.02 ± 0.56 and a protein stability index under setting [2] of 1.99 ± 0.23.

As for IFQEQQKKWQQYRSVRRERLKEMK [FAM9B], the protein stability index is, setting by setting: under setting [1], 3.22 ± 0.29; under setting [2], 3.22 ± 0.39.

In turn, IGALTYFAQADALKGTLVSTLKEV [ACSBG2] showed a protein stability index under setting [1] of 2.21 ± 0.41 and a protein stability index under setting [2] of 2.25 ± 0.56.

Regarding IGYVHIYLKGQREKSEKINAMLKG [GOSR1], the protein stability index reads like this: under setting [1], 2.21 ± 0.14; under setting [2], 2.67 ± 0.17.

In the case of IICEAHKVLGNRWAEIAKMLPGRT [MYBL2], the protein stability index is, setting by setting: under setting [1], 2.25 ± 0.099; under setting [2], 2.2 ± 0.16.

The sequence IIDYLEQTFLDERTPRLMPDKESM [GDAP1] registered a protein stability index under setting [1] of 2.6 ± 0.27 and a protein stability index under setting [2] of 2.82 ± 0.28.

With IKLREYEAALNSKDAALATALGDK [LMNB1], the protein stability index came to 4.076 ± 0.039 under setting [1] and 4.38 ± 0.15 under setting [2].

For the sequence IKSVLWQTLQALNFCHIHNCIHRD [CDKL4], the protein stability index by setting is: under setting [1], 3.15 ± 0.99; under setting [2], 2.99 ± 0.72.

As for ILIQHQKAKHFKCHICHKKLYTGP [ZNF207], the protein stability index came to 2.44 ± 0.12 under setting [1] and 1.88 ± 0.38 under setting [2].

For the sequence ILVYDIANRWSFEGMDRWIKKIEE [RAB40A], the protein stability index reads like this: under setting [1], 2.43 ± 0.38; under setting [2], 2.34 ± 0.16.

On to INVGGIKYSLPWTTLDEFPLTRLG [KCNG1], for which the protein stability index runs as follows: under setting [1], 2.17 ± 0.6; under setting [2], 2.06 ± 0.13.

IPERLSIFCRDTQTVFQKKNLQQT [IQUB]: the protein stability index reads like this: under setting [1], 2.87 ± 0.19; under setting [2], 2.98 ± 0.51.

IPPPLSSVYAWGGGLGTPLRLPML [NEK8]: the protein stability index is, setting by setting: under setting [1], 2.32 ± 0.087; under setting [2], 2.32 ± 0.034.

On to IQEAQSAWKDDFALNSMLRRRFRE [YJU2B], for which the protein stability index stood at 3.53 ± 0.14 under setting [1] and 3.69 ± 0.25 under setting [2].

Take IQFATPNDFCSFYNILKTCRGHTL [CARM1]: the protein stability index under setting [1] came out at 2.47 ± 0.41 and the protein stability index under setting [2] was found to be 2.24 ± 0.22.

With IQQGINAVNQEAMNNAQRIEKWVI [ACSBG2], the protein stability index turned out to be 2.89 ± 0.44 under setting [1] and 2.94 ± 0.51 under setting [2].

On to IQVVLNGMESYQEVTVQRNCCLTL [ZER1], for which the protein stability index under setting [1] is 3.21 ± 0.47 and the protein stability index under setting [2] is 3.01 ± 0.73.

Take IRCVYILDPWFAGSSNVGINRWRF [CRY1]: the protein stability index was found to be 3.13 ± 0.51 under setting [1] and 3.06 ± 0.51 under setting [2].

Take IRDFEARKCPVHGKTMELFCQTDQ [TRIM29]: the protein stability index was 3.54 ± 0.28 under setting [1] and 3.76 ± 0.28 under setting [2].

For the sequence IRIKLDPCHPTVKNWRNFASKWGM [EDARADD], the protein stability index was 3.28 ± 0.61 under setting [1] and 2.58 ± 0.76 under setting [2].

The sequence IRPDPRSRVTDPVGDIVSFMHSFE [FAF2] displayed a protein stability index under setting [1] of 3.06 ± 0.42 and a protein stability index under setting [2] of 3.09 ± 0.33.

On to IRVKIADLGNACWVHKHFTEDIQT [SRPK2], for which the protein stability index was 2.43 ± 0.5 under setting [1] and 2.26 ± 0.57 under setting [2].

The sequence ISCVERGWSTPPKCRSTISAEKCG [CFHR2] displayed a protein stability index under setting [1] of 2.88 ± 0.14 and a protein stability index under setting [2] of 3.09 ± 0.32.

With ISGGFDRTVAIWDVAEGYRKLSLK [WDR88], the protein stability index runs as follows: under setting [1], 3.09 ± 0.49; under setting [2], 3.02 ± 0.36.

ISLHPFNPWNWGKLAEAYLNLGPA [C8orf76]: the protein stability index under setting [1] came to 2.23 ± 1.1 and the protein stability index under setting [2] turned out to be 2.18 ± 0.77.

On to IVATLLILDICEDNVPDPKDVKER [TMEM175], for which the protein stability index was 2.46 ± 0.67 under setting [1] and 2.49 ± 0.37 under setting [2].

Turning to IVDKCTELLREGRASATTTITTAA [ZBTB22], the protein stability index came to 3.78 ± 0.1 under setting [1] and 3.74 ± 0.18 under setting [2].

On to IVLNKINQILMEKYLKLQDTCRTQ [INTS3], for which the protein stability index reads like this: under setting [1], 3.59 ± 0.83; under setting [2], 3.24 ± 0.61.

Sequence IWAFLDVSFVERILKSQKERQCAL [FBXO39] registered a protein stability index under setting [1] of 2.41 ± 0.53 and a protein stability index under setting [2] of 2.24 ± 0.17.

As for IWNILDLVVILLSIVAVGFHIFRT [PKD2L1], the protein stability index is, setting by setting: under setting [1], 3.15 ± 0.64; under setting [2], 2.45 ± 0.84.

With IYNGGVEAVSTLLGAVAVFAVGYI [SLC19A2], the protein stability index under setting [1] was 2.37 ± 0.26.

On to IYSTDLHKLDLNTREWTQLKPNNL [KLHDC10], for which the protein stability index is 2.65 ± 0.18 under setting [1] and 2.81 ± 0.15 under setting [2].

With KAETKTKKAAESLRRSVEKYNSAR [FCHO1], the protein stability index by setting is: under setting [1], 4.64 ± 0.22; under setting [2], 4.72 ± 0.075.

For KCRSTISAEKCGPPPPIDNGDITS [CFHR2], the protein stability index runs as follows: under setting [1], 4.52 ± 0.071; under setting [2], 4.45 ± 0.29.

Consider KCYLNGVKVPGIVRLRTLLCKVLG [CLCN6], for which the protein stability index runs as follows: under setting [1], 2.93 ± 0.43; under setting [2], 2.77 ± 0.36.

On to KEETNHSEMAEDLCKIGSERSLVL [IKZF1], for which the protein stability index is, setting by setting: under setting [1], 4.69 ± 0.31; under setting [2], 4.86 ± 0.28.

Consider KFLEICKLSGFMSKLVPAIQNAHK [TPRG1], for which the protein stability index came out at 2.27 ± 0.74 under setting [1] and 2.81 ± 1 under setting [2].

Regarding KGLLKKGACYGDDACFVARHRSAD [PPTC7], the protein stability index runs as follows: under setting [1], 4.16 ± 0.56; under setting [2], 4.05 ± 0.25.

As to KHAAFVTPDQKYSMDNTPHTPTPF [MYBL2], the protein stability index reads like this: under setting [1], 3.84 ± 0.25; under setting [2], 3.84 ± 0.35.

In the case of KHIPYREHKSLTGTARYMSINTHL [CSNK1G3], the protein stability index runs as follows: under setting [1], 2.41 ± 0.088; under setting [2], 2.51 ± 0.32.

On to KILVGNRLHLAFKRQVPTEQAQAY [RAB40B], for which the protein stability index was determined as 2.07 ± 0.16 under setting [1] and 2.5 ± 0.23 under setting [2].

Take KKAFVWARNIGFKVNSKKMLGKYN [ACSBG2]: the protein stability index worked out at 2.5 ± 0.46 under setting [1] and 2.35 ± 0.38 under setting [2].

On to KKALSGLSSRWKNWWIRGILTLTM [CDS1], for which the protein stability index was determined as 2.14 ± 0.091 under setting [1] and 2.22 ± 0.19 under setting [2].

For KKIYAMGGGSYGKLFESVECYDPR [GAN], the protein stability index by setting is: under setting [1], 2.94 ± 0.24; under setting [2], 2.99 ± 0.17.

With KKNSNMTYEKLSRAMRYYYKREIL [ELF3], the protein stability index under setting [1] was 2.33 ± 0.25 and the protein stability index under setting [2] stood at 2.27 ± 0.47.

KKQTKVEFPEARIFEETLNILIYE [KCTD13] gave a protein stability index under setting [1] of 2.16 ± 0.2 and a protein stability index under setting [2] of 2.44 ± 0.5.

Regarding KKSGEKEQHISKCKKAFREGSRKS [KMT2E], the protein stability index under setting [1] was determined as 4.23 ± 0.78 and the protein stability index under setting [2] turned out to be 4.61 ± 0.27.

Take KKSSRNIFSIVFVFFVCFVPYHIA [P2RY14]: the protein stability index is 3.31 ± 1 under setting [1] and 3.53 ± 0.15 under setting [2].

For KLGALLSRCRKLVEYFQQSAVAMY [ZBED1], the protein stability index by setting is: under setting [1], 3.12 ± 0.31; under setting [2], 3.1 ± 0.21.

Consider KLHYPELYVLKGGYKEFFMKCQSY [CDC25A], for which the protein stability index reads like this: under setting [1], 2.42 ± 0.5; under setting [2], 2.04 ± 0.33.

As for KLTQRLEEMTQRMEALENRLRYR [MATN2], the protein stability index stood at 2.7 ± 0.51 under setting [3] and 2.79 ± 0.34 under setting [4].

Turning to KLYGQRERVWALAQEKAADVQARL [FCHSD1], the protein stability index runs as follows: under setting [1], 3.51 ± 0.32; under setting [2], 3.49 ± 0.3.

Consider KMLRKEAAARCVVLDCRPYLAFAA [DUSP5], for which the protein stability index stood at 2.77 ± 0.63 under setting [1] and 2.51 ± 0.44 under setting [2].

In turn, KNGLSFIETSALDSTNVEAAFQTI [RAB11A] displayed a protein stability index under setting [1] of 3.31 ± 0.27 and a protein stability index under setting [2] of 3.56 ± 0.43.

For KPDYEYLRTLFTDLFEKKGYTFDY [CSNK1G1], the protein stability index by setting is: under setting [1], 2.4 ± 0.47; under setting [2], 2.31 ± 0.15.

The values above are taken from the supplement of paper PMC10567573.
